Results taken from US20180291335A1, “MODIFIED POLYNUCLEOTIDES FOR ALTERING CELL PHENOTYPE” (ModernaTX, Inc., priority 2012, published 2018).

Experiments:
interferon-alpha (IFN-α) = assay: In vitro screening in PBMC: interferon-alpha induction by ELISA; type: cell-based, human
From the text: (§1) The supernatant was harvested and stored frozen until analyzed by ELISA to determine the G-CSF protein expression, and the induction of the cytokines interferon-alpha (IFN-α) and tumor necrosis factor alpha (TNF-α).

HeLa cells [1] = assay: In vitro screening in HeLa cells, luciferase modified RNA; type: cell-based, human; parameters: key to Protein (Luc; HeLa): the protein production of HeLa is judged by “+,” “+1-” and “−”; the protein production of HeLa is judged by “+,” “+1-” and “−”; the protein production of HeLa is judged by “+,” “+1-” and “−”; details: for RLU: HeLa cells, 83 ng luciferase modified RNA, 18 to 22 hours
Description: The day before transfection, 20,000 HeLa cells (ATCC no. CCL-2; Manassas, Va.) were harvested by treatment with Trypsin-EDTA solution (LifeTechnologies, Grand Island, N.Y.) and seeded in a total volume of 100 ul EMEM medium (supplemented with 10% FCS and 1× Glutamax) per well in a 96-well cell culture plate (Corning, Manassas, Va.). The cells were grown at […] in 5% CO2 atmosphere overnight. […] Lipofectamine 2000 (LifeTechnologies, Grand Island, N.Y.) was used as transfection reagent and 0.2 ul were diluted in 10 ul final volume of OPTI-MEM. After 5 minutes of incubation at room temperature, both solutions were combined and incubated an additional 15 minute at room temperature. Then the 20 ul combined solution was added to the 100 ul cell culture medium containing the HeLa cells and incubated at room temperature.
After 18 to 22 hours of incubation cells expressing luciferase were lysed with 100 ul of Passive Lysis Buffer (Promega, Madison, Wis.) according to manufacturer instructions. Aliquots of the lysates were transferred to white opaque polystyrene 96-well plates (Corning, Manassas, Va.) and combined with 100 ul complete luciferase assay solution (Promega, Madison, Wis.). The lysate volumes were adjusted or diluted until no more than 2 mio relative light units (RLU) per well were detected for the strongest signal producing samples and the RLUs for each chemistry tested are shown in Table 19. The plate reader was a BioTek Synergy H1 (BioTek, Winooski, Vt.). The background signal of the plates without reagent was about 200 relative light units per well.

HeLa cells [2] = assay: G-CSF modified mRNA transfected in HeLa cells, G-CSF ELISA; type: cell-based, human; parameters: key to Protein (G-CSF; HeLa): the protein production of HeLa is judged by “+,” “+1-” and “−”; the protein production of HeLa is judged by “+,” “+1-” and “−”; the protein production of HeLa is judged by “+,” “+1-” and “−”
Description: (§2) To assess the activity of all our different chemical modifications in the context of a second open reading frame, we replicated experiments previously conducted using luciferase mRNA, with human G-CSF mRNA. […] The mutant T7 polymerase was obtained commercially (Durascribe® T7 Transcription kit (Cat. No. DS010925) (Epicentre®, Madison, Wis.).
(§3) The modified RNA in Tables 27 and 28 were transfected in vitro in HeLa cells or added to rabbit reticulysates (250 ng of modified mRNA) as indicated. […] In Table 27, “NT” means not tested.

rabbit reticulysates = assay: G-CSF modified mRNA in rabbit reticulysates, G-CSF ELISA; type: biochemical; details: 250 ng of modified mRNA
Description: as §2, §3

[3] = tested on: Rabbit Reticulocyte Lysate; assay: In vitro screening in rabbit reticulocyte lysates, luciferase mRNA translation; type: biochemical; details: 250 ng luciferase mRNA, 60 minutes, 30° C.
Description: The diluted luciferase was added to 40 ul of freshly prepared Rabbit Reticulocyte Lysate and the in vitro translation reaction was done in a standard 1.5 mL polypropylene reaction tube (Thermo Fisher Scientific, Waltham, Mass.) at 30° C. in a dry heating block. The translation assay was done with the Rabbit Reticulocyte Lysate (nuclease-treated) kit (Promega, Madison, Wis.) according to the manufacturer's instructions. The reaction buffer was supplemented with a one-to-one blend of provided amino acid stock solutions devoid of either Leucine or Methionine resulting in a reaction mix containing sufficient amounts of both amino acids to allow effective in vitro translation.
After 60 minutes of incubation, the reaction was stopped by placing the reaction tubes on ice. Aliquots of the in vitro translation reaction containing luciferase modified RNA were transferred to white opaque polystyrene 96-well plates (Corning, Manassas, Va.) and combined with 100 ul complete luciferase assay solution (Promega, Madison, Wis.). The volumes of the in vitro translation reactions were adjusted or diluted until no more than 2 mio relative light units (RLUs) per well were detected for the strongest signal producing samples and the RLUs for each chemistry tested are shown in Table 20. The plate reader was a BioTek Synergy H1 (BioTek, Winooski, Vt.). The background signal of the plates without reagent was about 200 relative light units per well.

[4] = tested on: peripheral blood mononuclear cells (PBMC); assay: In vitro screening in PBMC: G-CSF protein expression by ELISA; type: cell-based, human; details: Table 30, non-naturally occurring chemistries; G-CSF modified mRNA in PBMC; background about 110 pg/ml
From the text: as §1

[5] = tested on: peripheral blood mononuclear cells (PBMC); assay: In vitro PBMC study, percent modification: G-CSF expression by ELISA; type: cell-based, human; details: for G-CSF Expression: 22 hours after transfection; for Average G-CSF: PBMC, average of three donors
Description: 480 ng of G-CSF mRNA modified with 5-methylcytosine (5mC) and pseudouridine (pseudoU) or unmodified G-CSF mRNA was transfected with 0.4 uL of Lipofectamine 2000 into peripheral blood mononuclear cells (PBMC) from three normal blood donors (D1, D2, and D3). […] The supernatant was harvested and run by ELISA 22 hours after transfection to determine the protein expression. The expression of IFN-alpha and TNF-alpha may be a secondary effect from the transfection of the G-CSF mRNA.

IFN-alpha = assay: In vitro PBMC study, percent modification: IFN-alpha expression by ELISA; type: cell-based, human; details: for Average IFN-a / G-CSF/IFN-alpha (PC ratio): PBMC; for Average IFN-a: average of three donors; for G-CSF/IFN-alpha (PC ratio): protein/cytokine ratio from averages
Description: (§4) The supernatant was harvested and run by ELISA 22 hours after transfection to determine the protein expression.

TNF-alpha = assay: In vitro PBMC study, percent modification: TNF-alpha expression by ELISA; type: cell-based, human; details: for Average TNF-a / G-CSF/TNF-alpha (PC ratio): PBMC; for Average TNF-a: average of three donors; for G-CSF/TNF-alpha (PC ratio): protein/cytokine ratio from averages
Description: as §4

[6] = Table 30, non-naturally occurring chemistries, IFN-alpha from G-CSF modified mRNA in PBMC, background about 70 pg/ml
[7] = Table 30, non-naturally occurring chemistries, luciferase modified mRNA in HeLa, ** = second result, IVT with mutant T7 polymerase
[8] = Table 30, non-naturally occurring chemistries, G-CSF modified mRNA in HeLa
[9] = PBMC donor D1, 22 hours after transfection
[10] = PBMC donor D2, 22 hours after transfection
[11] = PBMC donor D3, 22 hours after transfection

N^6-methyladenosine (m^6A)
Cytokines (G-CSF; PBMC) (interferon-alpha (IFN-α); summary grade, IFN-alpha, G-CSF mRNA in PBMC): ++++ (“++++” means greater than 1,000 pg/ml interferon-alpha (IFN-alpha))
Protein (Luc; HeLa) (HeLa cells [1]; summary grade, luciferase mRNA in HeLa): −
Protein (G-CSF; HeLa) (HeLa cells [2]; summary grade, G-CSF mRNA in HeLa): −

COC(=O)C=Cc1cn([C@@H]2O[C@H](CO)[C@@H](O)[C@H]2O)c(=O)[nH]c1=O [5-(2-carbomethoxyvinyl) Uridine]
Cytokines (G-CSF; PBMC) (interferon-alpha (IFN-α); [6]): − (“−” means less than 100 pg/ml)
Protein (Luc; HeLa) (HeLa cells [1]; [7]): −
Protein (G-CSF; HeLa) (HeLa cells [2]; [8]): −

Luciferase control: luciferase control mRNA (SEQ ID NO: 409) fully modified with 5-methylcytosine and N1-methylpseudouridine [reference compound]
G-CSF protein (pg/ml) Rabbit reticulysates cells (rabbit reticulysates): 0 pg/mL

5 (2 carbovinyl) uridine: Luciferase mRNA (SEQ ID NO: 409) modified with 5 (2 carbovinyl) uridine
RLU (HeLa cells [1]): 531 RLU
RLU [3]: 225 RLU

5-methylcytidine (m5c): Luciferase mRNA (SEQ ID NO: 409) modified with 5-methylcytidine
RLU (HeLa cells [1]): 138,428 RLU
RLU [3]: 152,989 RLU

N4-acetylcytidine (ac4c): Luciferase mRNA (SEQ ID NO: 409) modified with N4-acetylcytidine
RLU (HeLa cells [1]): 235,412 RLU
RLU [3]: 60,879 RLU

5-Br-Uridine [Compound 5-Br-Uridine]
Protein (G-CSF; PBMC) [4]: + (“+” means greater than 300 pg/ml G-CSF)
Cytokines (G-CSF; PBMC) (interferon-alpha (IFN-α); [6]): + (“+” means greater than 100 pg/ml IFN-alpha)
Protein (Luc; HeLa) (HeLa cells [1]; [7]): +
Protein (G-CSF; HeLa) (HeLa cells [2]; [8]): +

2′-F-adenosine
Protein (Luc; HeLa) (HeLa cells [1]; [7]): −**

N6-methyladenosine (m6a): Luciferase mRNA (SEQ ID NO: 409) modified with N6-methyladenosine
RLU (HeLa cells [1]): 534 RLU
RLU [3]: 398 RLU

5 (3-1E propenyl Amino) uridine: Luciferase mRNA (SEQ ID NO: 409) modified with 5 (3-1E propenyl Amino) uridine
RLU (HeLa cells [1]): 446 RLU
RLU [3]: 211 RLU

B1: 50% modification: G-CSF mRNA (SEQ ID NO: 408) partially modified with 5mC and pseudoU, 50% modification (nucleic acid)
chain: GGGAAAUAAGAGAGAAAAGAAGAGUAAGAAGAAAUAUAAGAGCCACCAUGGCCGGUCCCGCGACCCAAAGCCCCAUGAAACUUAUGGCCCUGCAGUUGCUGCUUUGGCACUCGGCCCUCUGGACAGUCCAAGAAGCGACUCCUCUCGGACCUGCCUCAUCGUUGCCGCAGUCAUUCCUUUUGAAGUGUCUGGAGCAGGUGCGAAAGAUUCAGGGCGAUGGAGCCGCACUCCAAGAGAAGCUCUGCGCGACAUACAAACUUUGCCAUCCCGAGGAGCUCGUACUGCUCGGGCACAGCUUGGGGAUUCCCUGGGCUCCUCUCUCGUCCUGUCCGUCGCAGGCUUUGCAGUUGGCAGGGUGCCUUUCCCAGCUCCACUCCGGUUUGUUCUUGUAUCAGGGACUGCUGCAAGCCCUUGAGGGAAUCUCGCCAGAAUUGGGCCCGACGCUGGACACGUUGCAGCUCGACGUGGCGGAUUUCGCAACAACCAUCUGGCAGCAGAUGGAGGAACUGGGGAUGGCACCCGCGCUGCAGCCCACGCAGGGGGCAAUGCCGGCCUUUGCGUCCGCGUUUCAGCGCAGGGCGGGUGGAGUCCUCGUAGCGAGCCACCUUCAAUCAUUUUUGGAAGUCUCGUACCGGGUGCUGAGACAUCUUGCGCAGCCGUGAAGCGCUGCCUUCUGCGGGGCUUGCCUUCUGGCCAUGCCCUUCUUCUCUCCCUUGCACCUGUACCUCUUGGUCUUUGAAUAAAGCCUGAGUAGGAAG
modifications: 50% 5mC/pseudoU modified; Description of Artificial Sequence: Synthetic Transcript Sequence
G-CSF Expression ([5]; PBMC donor D1, 480 ng mRNA): 188.9 pg/mL
G-CSF Expression ([5]; PBMC donor D2, 480 ng mRNA): 187.2 pg/mL
G-CSF Expression ([5]; PBMC donor D3, 480 ng mRNA): 191.9 pg/mL
Average G-CSF [5]: 189 pg/mL
IFN-alpha Expression (IFN-alpha; [9]): 478.9 pg/mL
IFN-alpha Expression (IFN-alpha; [10]): 261.1 pg/mL
IFN-alpha Expression (IFN-alpha; [11]): 389.7 pg/mL
Average IFN-a (IFN-alpha): 376 pg/mL
G-CSF/IFN-alpha (PC ratio) (IFN-alpha): 0.5
TNF-alpha Expression (TNF-alpha; [9]): 49.6 pg/mL
TNF-alpha Expression (TNF-alpha; [10]): 24.1 pg/mL
TNF-alpha Expression (TNF-alpha; [11]): 10.4 pg/mL
Average TNF-a (TNF-alpha): 28 pg/mL
G-CSF/TNF-alpha (PC ratio) (TNF-alpha): 6.8

B2: 25% modification: G-CSF mRNA (SEQ ID NO: 408) partially modified with 5mC and pseudoU, 25% modification (nucleic acid)
chain: B1 chain
modifications: 25% 5mC and pseudoU modification; Description of Artificial Sequence: Synthetic Transcript Sequence
G-CSF Expression ([5]; PBMC donor D1, 480 ng mRNA): 139.3 pg/mL
G-CSF Expression ([5]; PBMC donor D2, 480 ng mRNA): 126.9 pg/mL
G-CSF Expression ([5]; PBMC donor D3, 480 ng mRNA): 102.0 pg/mL
Average G-CSF [5]: 122 pg/mL
IFN-alpha Expression (IFN-alpha; [9]): 564.3 pg/mL
IFN-alpha Expression (IFN-alpha; [10]): 400.4 pg/mL
IFN-alpha Expression (IFN-alpha; [11]): 670.7 pg/mL
Average IFN-a (IFN-alpha): 545 pg/mL
G-CSF/IFN-alpha (PC ratio) (IFN-alpha): 0.2
TNF-alpha Expression (TNF-alpha; [9]): 85.6 pg/mL
TNF-alpha Expression (TNF-alpha; [10]): 26.6 pg/mL
TNF-alpha Expression (TNF-alpha; [11]): 19.8 pg/mL
Average TNF-a (TNF-alpha): 44 pg/mL
G-CSF/TNF-alpha (PC ratio) (TNF-alpha): 2.8

B3: 2′Fluoroguanine triphosphate/pseudouridine: G-CSF mRNA (SEQ ID NO: 408) fully modified with the named combination (nucleic acid)
chain: B1 chain
modifications: 2'-fluoroguanine/pseudouridine modified; Description of Artificial Sequence: Synthetic Transcript Sequence
G-CSF protein (pg/ml) HeLa cells (HeLa cells [2]; HeLa cells, combination chemistries, ELISA): 1,136 pg/ml
